Experimental data taken from paper PMC3690482 (Molecular and cellular endocrinology, 2013).

Molecular target: MET (mouse (endogenous in NLT), UniProt P16056 25-1379)
Assay: co-IP

B1: AXL (receptor, mouse (endogenous in NLT), UniProt Q00993 19-888, looked up)
chain: AHKDTQTEAGSPFVGNPGNITGARGLTGTLRCELQVQGEPPEVVWLRDGQILELADNTQTQVPLGEDWQDEWKVVSQLRISALQLSDAGEYQCMVHLEGRTFVSQPGFVGLEGLPYFLEEPEDKAVPANTPFNLSCQAQGPPEPVTLLWLQDAVPLAPVTGHSSQHSLQTPGLNKTSSFSCEAHNAKGVTTSRTATITVLPQRPHHLHVVSRQPTELEVAWTPGLSGIYPLTHCNLQAVLSDDGVGIWLGKSDPPEDPLTLQVSVPPHQLRLEKLLPHTPYHIRISCSSSQGPSPWTHWLPVETTEGVPLGPPENVSAMRNGSQVLVRWQEPRVPLQGTLLGYRLAYRGQDTPEVLMDIGLTREVTLELRGDRPVANLTVSVTAYTSAGDGPWSLPVPLEPWRPGQGQPLHHLVSEPPPRAFSWPWWYVLLGALVAAACVLILALFLVHRRKKETRYGEVFEPTVERGELVVRYRVRKSYSRRTTEATLNSLGISEELKEKLRDVMVDRHKVALGKTLGEGEFGAVMEGQLNQDDSILKVAVKTMKIAICTRSELEDFLSEAVCMKEFDHPNVMRLIGVCFQGSDREGFPEPVVILPFMKHGDLHSFLLYSRLGDQPVFLPTQMLVKFMADIASGMEYLSTKRFIHRDLAARNCMLNENMSVCVADFGLSKKIYNGDYYRQGRIAKMPVKWIAIESLADRVYTSKSDVWSFGVTMWEIATRGQTPYPGVENSEIYDYLRQGNRLKQPVDCLDGLYALMSRCWELNPRDRPSFAELREDLENTLKALPPAQEPDEILYVNMDEGGSHLEPRGAAGGADPPTQPDPKDSCSCLTAADVHSAGRYVLCPSTAPGPTLSADRGCPAPPGQEDGA
  AXL in the MET immunoprecipitate, fold of input lysate: 0.6 fold
